{
  "source": "patent US20090075929",
  "key": {"[1]": {"tested_on": "GST-wtMADD (bacterially expressed, purified)"}},
  "data": [
    {"substance": "recombinant Akt (rAkt; protein kinase B)", "values": [
      {"measurement": "in vitro phosphorylation (32P autoradiography)", "setting": "GST-MADD1041A (T1041A)", "value": "The phosphorylation levels of MADD mutants including MADD70A, MADD173A and MADD1041A were reduced or absent"},
      {"measurement": "in vitro phosphorylation (32P autoradiography)", "setting": "GST-MADD173A (T173A)", "value": "The phosphorylation levels of MADD mutants including MADD70A, MADD173A and MADD1041A were reduced or absent"},
      {"measurement": "in vitro phosphorylation (32P autoradiography)", "setting": "GST-MADD70A (S70A)", "value": "The phosphorylation levels of MADD mutants including MADD70A, MADD173A and MADD1041A were reduced or absent"},
      {"measurement": "in vitro phosphorylation (32P autoradiography)", "setting": "[1]", "value": "recombinant wild-type MADD (wtMADD) was phosphorylated by Akt"}
    ]}
  ]
}
